Laboratory results as given in publication PMC12127886, “Mapping Hsp104 interactions using cross‐linking mass spectrometry” (FEBS Open Bio, 2025).

Columns and labels:
[1] = biological target: CtHsp104ΔN2R encoding the R328M/R757M mutations (Calcarisporiella thermophila); experiment: SEC; purified Hsp104wt and Hsp104mt on a superdex-200 10/300GL column; molecular weights in Table S2
[2] = biological target: Calcarisporiella thermophila CtHsp104ΔN (153–883 aa) (Calcarisporiella thermophila); experiment: as above
[3] = biological target: the molecule itself; experiment: SEC; Hsp104fl and PCSK9 co-expressed in E. coli, complex purified by Ni-NTA, TEV cleavage and SEC; molecular weights in Table S2

CtHsp104ΔN2R encoding the R328M/R757M mutations (domain or fragment)
stoichiometry N [1]: 6

Calcarisporiella thermophila CtHsp104ΔN (153–883 aa) (domain or fragment)
stoichiometry N [2]: 6

B1: Thermochaetoides thermophila TtHsp104 full length (natural protein, UniProt A0A2Z6G185 1-926, looked up)
chain: MNSKMEFTDRAKKALEDAMALAEQYQHLQLQPVHLAVALLDPTPDPSKDQSAAPGTTSTLFRQVVERAHGDAQAFDRALKKKLVRLPSQDPPPDQVSMSAGCSSVLRKANELQKVQKDSYIAVDHLIAALAEDHTIQEALKEANIPKPKLVQDAIQAIRGNKRVDSRNADTEQENENLSKFCIDMTAMAREGKIDPVIGREEEIRRVIRILSRRTKNNPVLIGEPGVGKTTIVEGLAQRIVNADVPDNLAACKLLSLDVGALVAGSKYRGEFEERMKGVLKEIQESKETIILFVDEIHLLMGAGSSGEGGMDAANLLKPMLARGQLHCIGATTLAEYRKYIEKDAAFERRFQQVLVKEPSITETISILRGLKEKYEVHHGVNIADAAIVAAANLAARYLTSRRLPDSAVDLIDEAAAAVRVARESQPEIIDSLERRLRQLKIEIHALSREKDEASKARLAQAKQDAQNVEEELRPLREKYERERQRGKAIQEAKMKLEALRVKAEDASRMGDHSRAADLQYYAIPEQEAIIKRLEAEKAAADAALNANGADVGGSMITDVVGPDQINEIVARWTGIPVTRLKTSEKEKLLHMEQALSKIVVGQKEAVQSVSNAIRLQRSGLSNPNQPPSFLFCGPSGTGKTLLTKALAEFLFDDPKSMIRFDMSEYQERHSLSRMIGAPPGYVGHDAGGQLTEALRRRPFSILLFDEVEKAAKEVLTVLLQLMDDGRITDGQGRVVDAKNCIVVMTSNLGAEYLSRANNGKDGKIDPTTRELVMNTLRNYFLPEFLNRISSIVIFNRLTRREIRKIVDLRIAEIQKRLTDNDRNVTIKVSDEAKDKLGAQGYSPVYGARPLQRLLEKEVLNRLAILILRGQIREGEVACVELVDGKVQVLPNHPDSEPEDVDVDMESDDAVDEVAPDSMDEDIYND
notes: Hsp104 of Thermochaetoides thermophila, full length; Hexamer in the complex with PCSK9 by SEC; also called Hsp104fl; source: E. coli BL21, co-expressed with PCSK9, complex purified (Ni-NTA, TEV cleavage, SEC)
stoichiometry N [3]: 6
